# Results as given in US20220289816A1, “IMMUNOTHERAPY WITH B*07 RESTRICTED PEPTIDES AND COMBINATION OF PEPTIDES AGAINST CANCERS AND RELATED METHODS” (Immatics Biotechnologies GmbH, priority 2018, published 2022).
# Target: HLA-B*07 (Homo sapiens, UniProt P01889)
# Assay: MHC binding assay (UV-ligand exchange, ELISA of stabilized MHC complexes)
# Settings: peptide exchange yield on HLA-B*07, UV-ligand exchange
# Excerpt: Candidate peptides for T cell based therapies according to the present invention were further tested for their MHC binding capacity (affinity). The individual peptide-MHC complexes were produced by UV-ligand exchange, where a UV-sensitive peptide is cleaved upon UV-irradiation and exchanged with the peptide of interest as analyzed. Only peptide candidates that can effectively bind and stabilize the peptide-receptive MHC molecules prevent dissociation of the MHC complexes. To determine the yield of the exchange reaction, an ELISA was performed based on the detection of the light chain (β2m) of stabilized MHC complexes. The assay was performed as generally described in Rodenko et al. (Rodenko et al., 2006)
# 96 well MAXISorp plates (NUNC) were coated over night with 2 ug/ml streptavidin in PBS at room temperature, washed 4× and blocked for 1 h at 37° C. in 2% BSA containing blocking buffer. […] Peptide-MHC monomers of the UV-exchange reaction were diluted 100-fold in blocking buffer. Samples were incubated for 1 h at 37° C., washed four times, incubated with 2 ug/ml HRP conjugated anti-[…] for 1 h at 37° C., washed again and detected with TMB solution that is stopped with […]. Absorption was measured at 450 nm. Candidate peptides that show a high exchange yield (preferably higher than 50%, most preferred higher than 75%) are generally preferred for a generation and production of antibodies or fragments thereof, and/or T cell receptors or fragments thereof, as they show sufficient avidity to the MHC molecules and prevent dissociation of the MHC complexes.
row,Substance,Peptide exchange
1,109 (LPRALMRST; listed as Homo sapiens) [compound 109],+++ (>50 = +++)
2,110 (YPSSPASAV; listed as Homo sapiens) [compound 110],++++ (>75% = ++++)
3,111 (YPLQQTNVY; listed as Homo sapiens) [compound 111],+ (>10% = +)
4,112 (YPSPLNKHSF; listed as Homo sapiens) [compound 112],+++ (>50 = +++)
5,113 (KPHLDRRGAVI; listed as Homo sapiens) [compound 113],++++ (>75% = ++++)
6,114 (FVPPSGPSNPM; listed as Homo sapiens) [compound 114],++ (>20% = ++)
7,115 (KTKSLAQQL; listed as Homo sapiens) [compound 115],+++ (>50 = +++)
8,117 (IPHQRSSL; listed as Homo sapiens) [compound 117],++++ (>75% = ++++)
9,118 (NPERHKPSF; listed as Homo sapiens) [compound 118],+++ (>50 = +++)
10,119 (KATEYVHSL; listed as Homo sapiens) [compound 119],+ (>10% = +)
11,120 (TVRPKNAAL; listed as Homo sapiens) [compound 120],+++ (>50 = +++)
12,121 (GPFQRAAL; listed as Homo sapiens) [compound 121],+++ (>50 = +++)
13,122 (KPRTPFTTAQLL; listed as Homo sapiens) [compound 122],++++ (>75% = ++++)
14,123 (RPRLRDLPAL; listed as Homo sapiens) [compound 123],+++ (>50 = +++)
15,125 (SPAKQFNIY; listed as Homo sapiens) [compound 125],++ (>20% = ++)
16,126 (MPREDAHF; listed as Homo sapiens) [compound 126],+ (>10% = +)
17,127 (KSKQVITLL; listed as Homo sapiens) [compound 127],+ (>10% = +)
18,129 (MTLPATTLTL; listed as Homo sapiens) [compound 129],++ (>20% = ++)

row,Substance,Peptide exchange
1,130 (GAYDKARYL; listed as Homo sapiens) [compound 130],++ (>20% = ++)
2,131 (MPFRNIRSIL; listed as Homo sapiens) [compound 131],+++ (>50 = +++)
3,132 (LPRLPVGSLV; listed as Homo sapiens) [compound 132],++++ (>75% = ++++)
4,133 (LPELPTTLTF; listed as Homo sapiens) [compound 133],++ (>20% = ++)
5,134 (VAAAARLTL; listed as Homo sapiens) [compound 134],+++ (>50 = +++)
6,135 (MPRLLRLSL; listed as Homo sapiens) [compound 135],+++ (>50 = +++)
7,136 (QPDHAGIFRVF; listed as Homo sapiens) [compound 136],++++ (>75% = ++++)
8,139 (LVILQHQAM; listed as Homo sapiens) [compound 139],+++ (>50 = +++)
9,140 (TPFPDIHWF; listed as Homo sapiens) [compound 140],++++ (>75% = ++++)
10,141 (YGPYGSGSGW; listed as Homo sapiens) [compound 141],++ (>20% = ++)
11,143 (YPMIPPAQL; listed as Homo sapiens) [compound 143],+++ (>50 = +++)
12,144 (RPVQGIPTY; listed as Homo sapiens) [compound 144],+++ (>50 = +++)
13,145 (VPAQRLGLLL; listed as Homo sapiens) [compound 145],+++ (>50 = +++)
14,146 (SPTRGSEF; listed as Homo sapiens) [compound 146],++++ (>75% = ++++)
15,147 (HVAQPAVVL; listed as Homo sapiens) [compound 147],+++ (>50 = +++)
16,149 (SPSSVFTSK; listed as Homo sapiens) [compound 149],+++ (>50 = +++)
17,150 (APLHGGGSL; listed as Homo sapiens) [compound 150],+++ (>50 = +++)

# Results, then the substance that gave them:
row,Peptide exchange,Substance
1,++++ (>75% = ++++),151 (QPTWNTQTRL; listed as Homo sapiens) [compound 151]
2,+++ (>50 = +++),152 (SSASFSSELFRH; listed as Homo sapiens) [compound 152]
3,++++ (>75% = ++++),153 (QPVHSLCSA; listed as Homo sapiens) [compound 153]
4,+++ (>50 = +++),154 (RPPPSRRAVL; listed as Homo sapiens) [compound 154]
5,+++ (>50 = +++),156 (GSRPVTGSV; listed as Homo sapiens) [compound 156]
6,++++ (>75% = ++++),157 (RPVTGSVC; listed as Homo sapiens) [compound 157]
7,++ (>20% = ++),158 (SVPVATVEL; listed as Homo sapiens) [compound 158]
8,++ (>20% = ++),160 (IPVSHPVLTF; listed as Homo sapiens) [compound 160]
9,++ (>20% = ++),161 (ASKILETSL; listed as Homo sapiens) [compound 161]
10,+++ (>50 = +++),162 (IPIRVDQNGAF; listed as Homo sapiens) [compound 162]
11,++++ (>75% = ++++),164 (RAAGRRLQL; listed as Homo sapiens) [compound 164]
12,++++ (>75% = ++++),165 (RPSKEMQVTI; listed as Homo sapiens) [compound 165]
13,++++ (>75% = ++++),167 (NVNPARKGL; listed as Homo sapiens) [compound 167]
14,++++ (>75% = ++++),168 (SPSGQRDVSL; listed as Homo sapiens) [compound 168]
15,++++ (>75% = ++++),169 (RPFSVSSISQL; listed as Homo sapiens) [compound 169]
16,++++ (>75% = ++++),170 (APEGKRLGF; listed as Homo sapiens) [compound 170]
17,+++ (>50 = +++),171 (LPLGGHKSL; listed as Homo sapiens) [compound 171]
18,+++ (>50 = +++),172 (SAQSLHPVL; listed as Homo sapiens) [compound 172]
19,++ (>20% = ++),173 (VIINNPISL; listed as Homo sapiens) [compound 173]
20,++++ (>75% = ++++),174 (IPVTSSVTL; listed as Homo sapiens) [compound 174]

row,Peptide exchange,Substance
1,++++ (>75% = ++++),176 (QPLDICHSF; listed as Homo sapiens) [compound 176]
2,+++ (>50 = +++),177 (VWEPQGSSRSL; listed as Homo sapiens) [compound 177]
3,+++ (>50 = +++),178 (VPYYPRANL; listed as Homo sapiens) [compound 178]
4,++++ (>75% = ++++),180 (RLRDYISSL; listed as Homo sapiens) [compound 180]
5,+++ (>50 = +++),181 (LPVSPARAL; listed as Homo sapiens) [compound 181]
6,+++ (>50 = +++),182 (RPLPVSPARAL; listed as Homo sapiens) [compound 182]
7,+++ (>50 = +++),183 (VPRRPARAL; listed as Homo sapiens) [compound 183]
8,++ (>20% = ++),184 (KIIASGNHL; listed as Homo sapiens) [compound 184]
9,++++ (>75% = ++++),185 (RPVLTASSF; listed as Homo sapiens) [compound 185]
10,+ (>10% = +),186 (VPLPAGGGTVLT; listed as Homo sapiens) [compound 186]
11,++++ (>75% = ++++),187 (APPPPPPPF; listed as Homo sapiens) [compound 187]
12,++ (>20% = ++),188 (HAAASFETL; listed as Homo sapiens) [compound 188]
13,++++ (>75% = ++++),189 (QPQCSTHIL; listed as Homo sapiens) [compound 189]
14,+++ (>50 = +++),190 (RLAHVRARL; listed as Homo sapiens) [compound 190]
15,++++ (>75% = ++++),191 (KPKAVKPKAA; listed as Homo sapiens) [compound 191]
16,++ (>20% = ++),192 (IPFADVKSF; listed as Homo sapiens) [compound 192]
17,++++ (>75% = ++++),193 (LPALKEEAF; listed as Homo sapiens) [compound 193]
18,+++ (>50 = +++),194 (HPNKIKASL; listed as Homo sapiens) [compound 194]
19,+++ (>50 = +++),195 (NPIFGRKEL; listed as Homo sapiens) [compound 195]
